B1: COV2-2143 IgG (antibody, V domains shown)
VH: EVQLVESGGGLVQPGGSLRLSCAASGFTVSSNYMSWVRQAPGKGLEWVSVIYSAGSTYYADSVKGRFSISRDKSKNTLYLQMNSLRAEDTAVYYCAKEGGSGSLRYYYYGMDVWGQGTTVTVSS
VL: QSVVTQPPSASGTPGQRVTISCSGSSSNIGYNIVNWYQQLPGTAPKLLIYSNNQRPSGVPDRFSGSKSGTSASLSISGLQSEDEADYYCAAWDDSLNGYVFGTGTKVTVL
B2: CV27 IgG (antibody, V domains shown)
VH: QVQLVESGGGVVQPGRSLRLSCAASGFTFSSYAMHWVRQAPGKGLEWVALISYDGSNKYYADSVKGRFTISRDNSKNTLYLQMNSLRAEDTAVYYCARSFGGSYYYGMDVWGQGTTVTVSS
VL: QSALTQPASVSGSPGQSITISCTGTSSDVGGYNYVSWYQQHPGKAPKLMIYDVSNRPSGVSNRFSGSKSGNTASLTISGLQAEDEADYYCSSYTSSSTPYVFGTGTKVTVL
B3: COV2-2449 IgG (antibody, V domains shown)
VH: QVQLVESGGGVVQPGRSLRLSCATSGFTFSSFALHWVRQAPGKGLEWVTVISDDGNNKYYVDSVKGRFTISRDNSKNTLFLQMNSLRVEDTAIYYCARASYNSNWSIGEYFRDWGQGTLVTVSS
VL: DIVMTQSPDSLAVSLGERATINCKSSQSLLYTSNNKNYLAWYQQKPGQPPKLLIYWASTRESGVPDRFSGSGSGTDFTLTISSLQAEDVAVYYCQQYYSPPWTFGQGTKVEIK
B4: COV2-2143 Fab (Fab, V domains shown)
VH: EVQLVESGGGLVQPGGSLRLSCAASGFTVSSNYMSWVRQAPGKGLEWVSVIYSAGSTYYADSVKGRFSISRDKSKNTLYLQMNSLRAEDTAVYYCAKEGGSGSLRYYYYGMDVWGQGTTVTVSS
VL: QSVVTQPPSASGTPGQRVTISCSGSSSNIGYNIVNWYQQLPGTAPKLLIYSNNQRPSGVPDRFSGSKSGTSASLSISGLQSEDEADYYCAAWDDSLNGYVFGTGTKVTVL
B5: COVA2-14 IgG (antibody, V domains shown)
VH: QVQLVQSGAEVKKPGSSVKVSCKASGGTFSSYAIIWVRQAPGQGLEWMGGIIPIFGTANYAQKFQGRVTITTDESTSTAYMELSSLRSEDTAVYYCARVRYYDSSGYYEDYWGQGTLVTVSS
VL: EIVLTQSPATLSLSPGERATLSCRASQSVSSYLAWYQQEPGQAPRLLIYDASNRATGIPARFSGSGSGTDFTLTISSLEPEDFAVYYCQQRSNWPPMYTFGQGTKVEIK
B6: COVA2-14 Fab (Fab, V domains shown)
VH: QVQLVQSGAEVKKPGSSVKVSCKASGGTFSSYAIIWVRQAPGQGLEWMGGIIPIFGTANYAQKFQGRVTITTDESTSTAYMELSSLRSEDTAVYYCARVRYYDSSGYYEDYWGQGTLVTVSS
VL: EIVLTQSPATLSLSPGERATLSCRASQSVSSYLAWYQQEPGQAPRLLIYDASNRATGIPARFSGSGSGTDFTLTISSLEPEDFAVYYCQQRSNWPPMYTFGQGTKVEIK
B7: COVA2-18 IgG (antibody, V domains shown)
VH: EVQLVQSGAEVKKPGSSVKVSCKASGGTFSSYAISWVRQAPGQGLEWMGGIIPIFGTTNYAQKFQGRVTITTDESTSTAYMELSSLRSEDTAVYYCARVYSYDSSGYYLEYWGQGTRVTVSS
VL: EIVLTQSPATLSLSPGERATLSCRASQSVSSYLAWYQQKPGQAPRLLIYDASNRATGIPARFSGSGSGTDFTLTISSLEPEDFAVYYCQQRSNWPPSITFGQGTRLEIK
B8: COV2-2147 IgG (antibody, V domains shown)
VH: QVQLAESGGGVVQPGRSLRLSCAASGFTFSSYAMHWVRQAPGKGLEWVAVISYDGSNKYYADSVKGRFTISRDNSKNTLYLQMNSLRAEDTAVYYCARSTSGSYYYGMDVWGQGTTVTVSS
VL: QSALTQPASVSGSPGQSITISCTGTSSDVGDYNYVSWYQQHPGKAPKLMIYDVSNRPSGVSNRFSGSKSGNTASLTISGLQAEDEAEYYCSSYTSSSTLLYVFGTGTKVTVL
B9: CV27 Fab (Fab, V domains shown)
VH: QVQLVESGGGVVQPGRSLRLSCAASGFTFSSYAMHWVRQAPGKGLEWVALISYDGSNKYYADSVKGRFTISRDNSKNTLYLQMNSLRAEDTAVYYCARSFGGSYYYGMDVWGQGTTVTVSS
VL: QSALTQPASVSGSPGQSITISCTGTSSDVGGYNYVSWYQQHPGKAPKLMIYDVSNRPSGVSNRFSGSKSGNTASLTISGLQAEDEADYYCSSYTSSSTPYVFGTGTKVTVL
B10: COV2-2449 Fab (Fab, V domains shown)
VH: QVQLVESGGGVVQPGRSLRLSCATSGFTFSSFALHWVRQAPGKGLEWVTVISDDGNNKYYVDSVKGRFTISRDNSKNTLFLQMNSLRVEDTAIYYCARASYNSNWSIGEYFRDWGQGTLVTVSS
VL: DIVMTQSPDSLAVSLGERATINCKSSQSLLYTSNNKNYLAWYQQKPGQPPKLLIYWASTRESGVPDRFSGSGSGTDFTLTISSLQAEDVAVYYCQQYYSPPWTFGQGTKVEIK

Ten molecules from publication PMC9596371 (Nature Chemical Biology, 2022) can be followed below.

In one assay the target is T1, SARS-CoV-2 spike protein (FL-GCN4-Avi-His, 2P, biotinylated trimer) (SARS-CoV-2, Wuhan-Hu-1 (strain named …, UniProt P0DTC2, stabilised, biotin on the Avi tag)). The assay can be described thus: ELISA. Conditions: both partners purified. For orientation: An ELISA detects its analyte on a solid surface through an enzyme-linked reagent.
On to B1, for which the binding result is listed as “binds”.

With B2, the binding result is on record as “binds”.

B3: the binding result is “binds”.

In the next assay the target is T1, SARS-CoV-2 spike protein …. The assay can be described thus: BLI. Conditions: both partners purified.
Take B4: the binding result is listed as “binds”.

In the case of B5, the binding result is given as “binds”.

As to B6, the binding result is “binds”.

With B7, the binding result is “binds”.

Consider B8, for which the binding result was “binds”.

As to B9, the binding result is reported as “binds”.

As to B10, the binding result is given as “binds”.
